Measurements as given in US20050132443A1.

Target: tobacco ethylene-responsive transcription factor ERF4 (tobacco) (UniProt Q40478)
Test: cell-based or functional assay

tobacco ethylene-responsive transcription factor ERF4 (tobacco), sequence (Q40478 whole entry): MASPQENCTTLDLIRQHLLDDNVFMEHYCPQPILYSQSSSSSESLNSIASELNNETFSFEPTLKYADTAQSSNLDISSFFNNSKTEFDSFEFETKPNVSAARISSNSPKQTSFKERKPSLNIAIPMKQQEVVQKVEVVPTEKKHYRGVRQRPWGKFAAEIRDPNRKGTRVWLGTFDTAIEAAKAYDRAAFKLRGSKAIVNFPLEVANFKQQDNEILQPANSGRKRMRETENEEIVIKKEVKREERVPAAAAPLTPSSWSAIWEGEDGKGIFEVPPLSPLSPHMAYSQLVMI

GUS activity (pERE-GUS reporter, transient assay in tobacco leaves): 5.5 fold
Substance: Multiprotein Bridging Factor 1 of Oryza sativa (oMBF1)
